Test [1] deals with histone H3-H4 heterodimer (human) (UniProt P68431). The test can be described thus: SEC; Superdex 200 10/300 GL; complex obtained at 0.5 mol/L NaCl; eluted at 14.38 mL, apparent molecular weight about 60 kDa; apparent stoichiometry also by Coomassie-stained SDS-PAGE. (SEC sorts molecules by how far they enter the pores of the column.)
The target of test [2] is full-length human histone H3 (human) (UniProt P68431). Described as above.

One may read the stoichiometry N as a count of units in the complex or per binding partner. In the case of “N-terminal domain of human MCM2 (aa 63–154) (from UniProt P49736 63-154) (domain or fragment)”, the stoichiometry N in test [1] was 1.
With “full-length human histone H4 (from UniProt P62805 1-103) (natural protein)”, in test [2], the stoichiometry N was found to be 1.
With “globular domain of ASF1a (aa 1–157) (from UniProt Q9Y294 1-157) (domain or fragment)”, the stoichiometry N in test [1] came out at 1.

The values are drawn from publication PMC4537477.
